What was measured:
soluble human ILT2-ECD [1] = molecular target: T1, soluble human ILT2-ECD (human, UniProt Q8NHL6 24-461); assay: SPR (Biacore), antibody captured on Protein A chip, soluble human ILT2-ECD injected, 25 C
T1 construct: also called LILRB1 extracellular domain
Procedure: (§1) The binding affinities of anti-ILT2 and anti-ILT4 antibodies were measured using a Biacore system (GE Healthcare LifeSciences). Equilibrium dissociation constant (KD) measurements were carried out with purified antibodies to evaluate their binding to human ILT2, human ILT4, and rhesus ILT2. Briefly, purified anti-ILT2 antibody 27F9, anti-ILT4 antibodies 47C8 and 48A5, and anti-ILT2/ILT4 antibodies 47H6, 51A1, 64A12, 73C4, and 73D1 were captured on a Sensor Chip Protein A (GE HealthCare). The surface of the Biacore Sensor Chip Protein A consists of a carboxymethylated dextran matrix with a recombinant Protein A variant covalently attached. Soluble human ILT2-ECD, human ILT4-ECD, or rhesus ILT2-ECD were injected at a flow rate of 30 μL/min at 25° C. The ILT2 or ILT4 proteins were used at concentrations ranging from 1.6-200 nM in PBS-P buffer with 2 fold dilutions. Kinetic data were collected over time and fit using the simultaneous global fit equation to yield affinity constants (KD values) for each antibody.

soluble human ILT4-ECD [2] = molecular target: T2, soluble human ILT4-ECD (human, UniProt Q8N423 22-460); assay: SPR (Biacore), antibody captured on Protein A chip, soluble ILT-ECD injected (1.6-200 nM), 25 C
T2 construct: also called LILRB2 extracellular domain
T2 sequence (Q8N423 other isoform, or with tags, fused parts or gaps): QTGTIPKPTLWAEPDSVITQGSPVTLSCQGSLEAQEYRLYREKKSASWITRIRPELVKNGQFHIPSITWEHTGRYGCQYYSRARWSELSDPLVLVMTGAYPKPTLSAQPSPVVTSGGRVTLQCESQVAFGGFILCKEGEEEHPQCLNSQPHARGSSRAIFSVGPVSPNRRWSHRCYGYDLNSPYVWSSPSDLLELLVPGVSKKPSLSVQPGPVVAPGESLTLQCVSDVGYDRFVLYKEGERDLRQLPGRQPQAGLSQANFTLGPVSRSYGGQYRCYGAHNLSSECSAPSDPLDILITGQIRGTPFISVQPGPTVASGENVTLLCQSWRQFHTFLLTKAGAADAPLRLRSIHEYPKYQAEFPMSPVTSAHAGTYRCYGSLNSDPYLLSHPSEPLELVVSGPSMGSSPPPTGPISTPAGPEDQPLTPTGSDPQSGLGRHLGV
Procedure: as §1

soluble human ILT4-ECD [3] = molecular target: T2, soluble human ILT4-ECD; assay: Biacore competition: antibody titrated against 20 nM ILT4-ECD, mixture injected over biotinylated HLA-A*1101 on a NeutrAvidin chip
Procedure: (§2) As part of the characterization process, the ability of exemplary antibodies to inhibit or block the interaction of ILT2 or ILT4 with their natural ligands was evaluated in competition experiments using a Biacore system. As described herein, the natural ligands of ILT2 and ILT4 include, but are not limited to, HLA class I molecules, including HLA-A, HLA-B, HLA-C, HLA-E, and HLA-G. Biotinylated HLA-A*1101 was captured in high amounts on a NeutrAvidin chip surface. Antigen-antibody complexes were prepared with (i) ILT2-ECD and anti-ILT2 antibody 27F9, anti-ILT4 antibody 48A5, or anti-ILT2/ILT4 antibody Hz73D1.v1 and (ii) ILT4-ECD and anti-ILT2 antibody 27F9, anti-ILT4 antibody 48A5, or anti-ILT2/ILT4 antibody Hz73D1.v1. The antibody concentration of each antibody was titrated from 0.09-100 nM and the concentration of human ILT2-ECD or ILT4-ECD was kept constant at 20 nM. The complexes were mixed in a 96-well microplate and each was injected onto the HLA-A-coated chip surface. The measured signal (response unit, RU) was plotted against the antibody concentration.

human ILT2 on cells = human ILT2 on cells (human, UniProt Q8NHL6 24-650); assay: cell-based or functional assay
human ILT2 on cells, sequence (Q8NHL6 24-650): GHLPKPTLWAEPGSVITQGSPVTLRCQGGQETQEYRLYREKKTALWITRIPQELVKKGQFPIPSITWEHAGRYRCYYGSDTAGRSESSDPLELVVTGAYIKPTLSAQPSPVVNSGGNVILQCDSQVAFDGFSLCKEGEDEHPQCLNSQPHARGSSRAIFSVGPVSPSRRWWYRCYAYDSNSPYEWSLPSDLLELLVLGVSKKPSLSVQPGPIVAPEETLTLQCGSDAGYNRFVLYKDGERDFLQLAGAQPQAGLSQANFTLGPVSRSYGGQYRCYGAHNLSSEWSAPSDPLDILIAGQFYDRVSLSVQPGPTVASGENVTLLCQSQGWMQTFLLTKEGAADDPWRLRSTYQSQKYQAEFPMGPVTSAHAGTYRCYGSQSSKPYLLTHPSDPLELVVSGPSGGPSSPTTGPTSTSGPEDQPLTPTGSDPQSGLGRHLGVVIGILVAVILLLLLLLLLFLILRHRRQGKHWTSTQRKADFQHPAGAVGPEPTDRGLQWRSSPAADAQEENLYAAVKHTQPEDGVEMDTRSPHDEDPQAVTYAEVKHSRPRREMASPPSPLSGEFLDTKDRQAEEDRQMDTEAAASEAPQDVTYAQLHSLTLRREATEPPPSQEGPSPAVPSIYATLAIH

soluble human ILT2-ECD [4] = molecular target: T1, soluble human ILT2-ECD; assay: Biacore competition: antibody titrated against 20 nM ILT2-ECD, mixture injected over biotinylated HLA-A*1101 on a NeutrAvidin chip; blocked ligand HLA-A*1101
Procedure: as §2

soluble human ILT2-ECD [5] = molecular target: T1, soluble human ILT2-ECD; assay: SPR (Biacore), antibody captured on Protein A chip, soluble ILT-ECD injected (1.6-200 nM), 25 C
Procedure: as §1

human ILT4 on cells = molecular target: T3, human ILT4 on cells (human, UniProt Q8N423 22-597); assay: flow cytometry, fluorescently labelled antibody on immune cell subsets of PBMC / red-cell-depleted whole blood
T3 construct: also called LILRB2; human ILT4 expressed on 293T cells
T3 sequence (Q8N423 other isoform, or with tags, fused parts or gaps): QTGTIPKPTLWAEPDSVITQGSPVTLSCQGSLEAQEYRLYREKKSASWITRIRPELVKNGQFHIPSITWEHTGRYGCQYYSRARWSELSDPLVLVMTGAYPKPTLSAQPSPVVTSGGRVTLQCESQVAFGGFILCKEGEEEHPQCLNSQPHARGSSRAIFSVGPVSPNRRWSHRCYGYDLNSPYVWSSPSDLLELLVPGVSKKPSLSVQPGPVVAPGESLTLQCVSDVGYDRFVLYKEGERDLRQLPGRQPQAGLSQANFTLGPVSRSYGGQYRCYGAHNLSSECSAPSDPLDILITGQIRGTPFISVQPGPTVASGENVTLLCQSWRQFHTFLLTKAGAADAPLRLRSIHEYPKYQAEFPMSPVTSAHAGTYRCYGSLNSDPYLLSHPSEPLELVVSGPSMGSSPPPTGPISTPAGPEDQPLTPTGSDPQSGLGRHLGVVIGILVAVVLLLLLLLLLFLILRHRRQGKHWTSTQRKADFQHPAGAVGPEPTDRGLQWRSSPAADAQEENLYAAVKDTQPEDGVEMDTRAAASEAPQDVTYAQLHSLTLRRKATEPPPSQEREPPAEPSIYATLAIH
Procedure: Flow cytometry analysis of blood immune cells was performed on human and cyno PBMC and whole blood. PBMC were prepared from a leukopak (Allcells Inc.) by centrifugation through ficoll, washing with PBS and freezing in cryopreservation buffer in liquid nitrogen until use. Whole blood (Allcells Inc.) was obtained fresh and red blood cells (RBC) depleted using ammonium chloride RBC lysing solution (Biolegend). PBMC or whole blood samples were stained with a fluorescently labeled antibody panel to distinguish various immune subsets (monocytes, B cells, NK cells, CD4+ and CD8+ T cells, neutrophils and eosinophils). Samples were further stained with fluorescently labeled isotype, 27F9 (ILT2 specific), 48A5 (ILT4 specific), 73D1, and Hz73D1.v1. The number of ILT2 and ILT4 molecules per cell of each immune subset was estimated by incubation with Quantum Simply Cellular microspheres followed by flow cytometry analysis.

Human ILT2-Fc = Human ILT2-Fc (human, UniProt Q8NHL6 24-461, limits assumed); assay: SPR (Biacore) competition: blocking of human ILT2-Fc binding to HLA-A, 25 C
Human ILT2-Fc, sequence (Q8NHL6 24-461 limits assumed): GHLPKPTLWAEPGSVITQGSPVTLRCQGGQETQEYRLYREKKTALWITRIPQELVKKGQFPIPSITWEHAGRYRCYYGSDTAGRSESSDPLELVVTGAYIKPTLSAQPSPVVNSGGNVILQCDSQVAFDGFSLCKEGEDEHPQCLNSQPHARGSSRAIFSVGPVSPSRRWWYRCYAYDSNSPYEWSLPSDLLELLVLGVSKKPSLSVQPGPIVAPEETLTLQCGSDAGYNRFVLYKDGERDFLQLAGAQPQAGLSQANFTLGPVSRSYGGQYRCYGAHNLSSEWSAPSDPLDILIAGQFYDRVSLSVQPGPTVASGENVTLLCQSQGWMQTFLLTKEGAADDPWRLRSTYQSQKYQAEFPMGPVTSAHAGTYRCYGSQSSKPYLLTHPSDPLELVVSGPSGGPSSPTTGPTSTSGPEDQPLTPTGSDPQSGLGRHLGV
Procedure: In addition to the reporter cell system, the inhibitory activity of anti-ILT2/ILT4 antibodies towards the interaction between ILT2 and MHC I molecules, and the interaction between ILT4 and MHC I molecules was evaluated using the Biacore system. Human ILT2-Fc and ILT4-Fc were used as target receptors and their interaction with an exemplary MHC-I molecule (HLA-A) was assayed in the presence or absence of an exemplary anti-ILT2/ILT4 antibody Hz73D1.v1 at 25° C. Anti-human ILT2 (clone 27F9) or ILT4 (clone 48A5) antibodies were used as tool reagents to dissect ILT2- and ILT4-specific blocking activities. Anti-IL2/ILT4 antibodies produced a dose-dependent reduction in the interaction between ILT2 and HLA-A, as well as between ILT4 and HLA-A. IC50s of the antibodies tested are shown in Table 16.

[6] = molecular target: T4, human ILT4 chimeric reporter receptor (ILT4 extracellular domain fused to PILRbeta … (human, UniProt Q8N423 22-460)); assay: reporter cell assay (not a direct binding assay): human ILT4 reporter cells co-cultured with Raji cells, %GFP+ by FACS
T4 construct: On the surface of NFAT-GFP reporter cells; associates with DAP12; also called ILT4 reporter cells; Human ILT4 reporter construct; not shown: The PILRbeta transmembrane/intracellular domain
Procedure: The ability of anti-ILT2/ILT4 antibodies to inhibit the interaction between ILT2 and/or ILT4 and MHC I molecules was evaluated using a reporter cell system. […] In this chimeric receptor system, the extracellular domain of the receptor of interest (e.g., ILT2 or ILT4) is fused with the transmembrane/intracellular domain of PILRβ that associates with the adaptor protein DAP12. When the chimeric receptor (e.g., ILT2 or ILT-4) is activated by binding to a ligand (e.g., MHC I molecule), DAP12 becomes phosphorylated and activates an NFAT-responsive promoter which drives GFP expression (see, e.g., Deng et al., 2014, Blood, 124:924-935).
Reporter cells were washed after staining and resuspended at 1×10⁶ cells/ml in X-VIVO™ 15 media (Lonza). […] For assays with Raji cells: anti-ILT2 antibody 27F9, anti-ILT4 antibody 48A5, anti-ILT2/ILT4 antibody 73D1 and Hz73D1.v1, and a control antibody were serially diluted and 50 μl was added to each well of a 96-well flat-bottom cell culture plate. […] The plates were incubated overnight at 37° C. The next day, reporter cells were assayed for GFP expression by FACS.

T1 sequence (Q8NHL6 24-461): as the sequence (Q8NHL6 24-461 limits assumed) above

| binding result (soluble human ILT2-ECD [1]) | Kd (soluble human ILT4-ECD [2]) [pM] | koff (soluble human ILT4-ECD [2]) [s⁻¹] | kon (soluble human ILT4-ECD [2]) [M⁻¹ s⁻¹] | binding result (soluble human ILT4-ECD [3]) | EC50, NKL cytolytic activity against 721.221-HLA-G target cells (human ILT2 on cells) [pM] | IC50 (read off the curve) (soluble human ILT2-ECD [4]) [pM] | Kd (soluble human ILT2-ECD [5]) [pM] | koff (soluble human ILT2-ECD [5]) [s⁻¹] | kon (soluble human ILT2-ECD [5]) [M⁻¹ s⁻¹] | binding result (human ILT4 on cells) | IC50 (Human ILT2-Fc) [pM] | Binder | binding result [6] |
| --- | --- | --- | --- | --- | --- | --- | --- | --- | --- | --- | --- | --- | --- |
| no binding (tested: 1.6-200 nM) | 74 | 2.5e-05 | 340000 |  |  |  |  |  |  |  |  | anti-ILT4 antibody 47C8 (antibody, V domains shown, Mouse hybridoma antibody) VH: EVQLQQSGPDLVKPGASVKISCKASGYSFTGYYMHWVKQSHGKSLEWIGRVYPNNGDTSYNQKFKVKAILTVDKSSSTAYMELRSLTSEDSAVYYCARGATVVESLFAYWGQGTLVTVSA VL: DIVLTQSPASLAVSLGQRATISCRASESVDNYGNNFLHWYQQKPGQPPKLLIYRTSNLESGIPARFSGSGSRTDFTLTINPVEADDVATYYCQQSNEDPYTFGGGTKLEIK |  |
|  |  |  |  | no binding (tested: about 200 nM) | 64 | ~9000 | 260 | 5.4e-05 | 210000 | no binding (tested: not given) | 8900 | anti-ILT2 antibody 27F9 (antibody, V domains shown, Mouse hybridoma antibody; also called clone 27F9; anti-ILT2 (27F9)) VH: QVQLKESGPGLVAPSQSLSITCTVSGFSLTNYGVSWVRQPPGKGLEWLGIIWGDGSTNYHSALISRLSISKDNSKSQVFLKLNSLQADDTATYYCAKPNWDTYAMDFWGQGTSVTVSS VL: DIQMTQTTSSLSASLGDRVTISCRASQDISNFLNWYQQKPDGTVKLLIYCTSKLHSGVPSRFSGSGSETDYSLTISNLEQEDIATYFCQQGNTLPPTFGGGTKLEII | no binding (tested: Log nM about 1.5 (about 30 nM)) |

— patent publication US20240025997A1 (NGM BIOPHARMACEUTICALS, published 2024)
